Laboratory results as given in US20220112273A1 (University of Pennsylvania, published 2022).

B1: HIV-1 Env-Fab (Fab generated from the VRC01 antibody, expressed from pHIV-1Env-Fab) (Fab, V domains shown)
VH: QVQLVQSGGQMKKPGESMRISCRASGYEFIDCTLNWIRLAPGKRPEWMGWLKPRGGAVNYARPLQGRVTMTRDVYSDTAFLELRSLTVDDTAVYFCTRGKNCDYNWDFEHWGRGTPVIVSS
VL: QIVLTQSPGTLSLSPGETAIISCRTSQYGSLAWYQQRPGQAPRLVIYSGSTRAAGIPDRFSGSRWGPDYNLTISNLESGDFGVYYCQQYEFFGQGTKVQVDI
B2: CHIKV-IgG (full-length anti-CHIKV Env human IgG from a single plasmid) (antibody, V domains shown)
VH: QVQLQQPGAALVKPGASAMMSCKASGYTFTSYWITWVKQRPGQGLEWIGDIYPGTGRTIYKEKFKTKATLTVDTSSSTAFMQLNSLTSEDSAVYYCARGYGSPYYALDYWGQGTSVTVSS
VL: DIVLTQSPASLAVSQGQRATISCKASQSVDYDGDSYVNWYQQKPGQSPKLLIYDASNLESGIPARFSGSGSGTDFTLNIHPVEEEDVATYYCQESNEDPRTFGGGTKLEIKR
B3: CHIKV-Env-Fab (Fab, V domains shown)
VH: QVQLVQSGSELKKPGASVKVSCKASGYTLTRYAMTWVRQAPGQGLEWMGWINTYTGNPTYVQGFTGRFVFSLDTSVSTAFLHITSLKAEDTAVYFCAREGGARGFDYWGQGTLVTVSS
VL: QSVLTQPPSVSGAPGQRVTISCTGSSSNIGASHDVHWYQQLPGTAPTLLIYVNSNRPSGVPDRFSGSKSGTSASLAITGLQAEDEADYYCQSYDSNLSGSAVFGGGTKLTVLG

What was measured:
[1] = target: Env of pseudotyped HIV-1 Q23Env17 virus (clade A, tier 1) (HIV-1 (clade A, Q23Env17)); experiment: cell-based or functional assay
[2] = target: Env of pseudotyped HIV-1 Bal26 virus (clade B, tier 1) (HIV-1 (clade B, Bal26)); experiment: cell-based or functional assay
[3] = target: Env of pseudotyped HIV-1 SF162S virus (clade B, tier 1) (HIV-1 (clade B, SF162S)); experiment: cell-based or functional assay
[4] = target: recombinant HIV-1 Env (subtype B; MN) protein (HIV-1 (subtype B, MN), UniProt P05877 32-513); experiment: binding ELISA, serial dilutions of day 14 mouse sera (FIG. 64A)

Binder	plateau percent neutralization (TZM-Bl luciferase assay, sera at 1:50) [1] [%]	plateau percent neutralization (TZM-Bl luciferase assay, sera at 1:50) [2] [%]	plateau percent neutralization (TZM-Bl luciferase assay, sera at 1:50) [3] [%]	binding result [4]
B1	~60	~62	~70	
B2				no binding
B3				no binding
